The results in this text go back to US6652861B1, “Anti-HIV and anti-tumor peptides and truncated polypeptides of MAP30” (priority 1999, dated 2003).

Data set [1] has as its system human spermatozoa. Kind of data set: Sperm motility by counting. The format is cell-based. On the procedure: Ten semen samples were randomly obtained form ten donors at the Andrology laboratory of the Department of Obstetrics and Gynecology at NYU Medical Center. All specimens were normal semen samples according to WHO guidelines. Each sample consisted of greater than or equal to 20 million motile sperm per milliliter. Sperm count and motility were determined by placing the sperm on a hackler chamber and assessing the samples under a 40× power microscopic field.
Each semen sample was washed two consecutive times in Ham's F-10 media. The washed sperm was spun to a pellet and then re-suspended in media to a concentration of 40 million spermatocytes per milliliter with at least 50% motility. Five microliters of sperm were then suspended in 100 microliters each of PBS, serial 10-fold dilutions of MAP30, or GAP31 or N-9 from 100 to 0.1 microg/ml. N-9 was used as a positive control. Motility and forward progression were assessed at each log concentration of the three compounds. The exposure time ranged form five minute to two hours.

Data set [2] concerns human spermatozoa. The data set can be described thus: Sperm vitality by eosin Y/nigrosine staining. Type of data set: cell-based. The conditions noted are these: vital stain. How it is done: The vitality staining was carried out by adding two drops of eosin Y to one drop of sperm sample and mixing for ten seconds. Two drops of nigrosine were then added to this mixture, and the solutions as mixed for 30 seconds. Slides were made from one drop of each solution mixed with MAP30, or GAP31, or N-9.

Another data set has as its system HIV-1(IIIB). The data set can be described thus: Anti-HIV assay: p24 expression in HIV-infected MT-4 T lymphocytes. Type of data set: cell-based. How it is done: Anti-HIV activity was assayed by inhibition on viral core protein, p24 expression in HIV-infected MT-4 T lymphocytes by RIA as described previously (World Health Organization (1992); Bourinbaiar et al (1995)). Briefly, the cells were plated in duplicated in 96-well microtiter plates at 1×10^5 cells/ml in the presence of serial 10-fold dilution of MAP30, or GAP31 or NP-9 at concentrations from […]. The cells were then infected with HIV-1(IIIB) at 100 infectious units per cell. The culture supernatants were collected on day 3 and were used for p24 assay using ELISA kit from Coulter (Hialeah, Fla.). Duplicates of original viral inoculum in the same volume of the medium without the target cells and incubated for 3 days were used as blanks. The blank values were subtracted from wells in which virus was propagated in host MT4 cells with or without drugs.

In a further data set the test system is HSV-2. Kind of data set: Anti-HSV assay by ELISA in WI-38 cells. The format is cell-based. On the procedure:
Anti-HSV activity was assayed with HSV-2 by ELISA (Meridian Diagnostics, Inc., Cincinnati, Ohio) as reported previously (Bourinbaiar et al (1996)). Human embryonic lung fibroblast cell line WI-38, (CCL-75, from ATCC, Rockville, Md.) was used as target cells. HSV-2 (VR-734, strain G) derived from a human with the genital infection was obtained from ATCC, Rockville, Md.
A general note: In an ELISA, binding on a coated surface is turned into a signal by an enzyme label.

Data set [3] has as its system endoproteinase Lys-C and Glu-C (V8). Kind of data set: Resistance to limited proteolysis with Lys-C and V8 (SDS-PAGE). The conditions noted are these: Lys-C or V8, up to 24 hr. How it is done: MAP30 and GAP31 were subjected to proteolysis with sequencing grade endoproteinase Lys-C and Glu-C (Promega, Madison, Wis.). Lys-C cleaves at the carboxylic side of lysine (Elliott et al., 1986). Glu-C, also known as V8 protease, cleaves specifically at the carboxylic side of glutamic acid in the presence of ammonium ion (Drapeau et al., 1972). In the absence of ammonium ion, Glu-C acts at both aspartic and glutamic acids. The reaction buffers for Lys-C and V8 were 25 mM Tris-HCl, pH 7.8, 1 mM EDTA and 50 mM ammonium bicarbonate, pH 7.8 respectively.
FIGS. 1A-1D show time course SDS-PAGE patterns of Lys-C and V8 digestions of MAP30 and GAP31. Three major fragments were produced in each case. These fragments are designated MLF25, MLF21, MLF0.8 (MAP30 Lys-C Fragments of 25, 21, and 0.8 kDa, FIG. 1A), MVF25, MVF21, MVF0.8 (MAP30 V8 Fragments of 25, 21, and 0.8 kDa, FIG. 1B), GLF26, GLF22, GLF0.6 (GAP31 Lys-C Fragments of 26, 22 and 0.6 kDa, FIG. 1C), and GVF26, GVF22, GVF0.6 (GAP31 V8 Fragments of 26, 22 and 0.6 kDa, FIG. 1D). The smaller peptides are C-terminal fragments produced during proteolysis and they are sensitive to further digestion to short peptides.

“And” between values parts separate entries of the source, which are not always exact repeats. Identical values can stand only once. “Also recorded” adds a separate entry of the source.

B1: MAP30: Momordica Anti-HIV Protein 30 kDa, native full-length, SEQ ID NO:1, from bitter melon (protein, listed as Momordica charantia)
chain: DVNFDLSTATAKTYTKFIEDFRATLPFSHKVYDIPLLYSTISDSRRFILLDLTSYAYETISVAIDVTNVYVVAYRTRDVSYFFKESPPEAYNILFKGTRKITLPYTGNYENLQTAAHKIRENIDLGLPALSSAITTLFYYNAQSAPSALLVLIQTTAEAARFKYIERHVAKYVATNFKPNLAIISLENQWSALSKQIFLAQNQGGKFRNPVDLIKPTGERFQVTNVDSDVVKGNIKLLLNSRASTADENFITTMTLLGESVVN
B1: the “inhibition of sperm motility at 100 μg/ml” value with human spermatozoa [1] (100 μg/ml) is on record as “only marginal effect”. Also, in the data set on human spermatozoa [1] (0.01 to 0.1 μg/ml), the “effect on sperm motility at the antiviral EC100 concentrations” value was “no significant effect on sperm motility”. Moreover, the “spermicidal activity / motility inhibition over the entire concentration ranges tested” value in the data set on human spermatozoa [1] (0.1 to 100 μg/ml) was “little spermicidal activity; also recorded: little inhibition”. The “sperm vitality after treatment” value in the data set with human spermatozoa [2] is “remained vital and impermeable to the pink dye; also recorded: Identical results”. Further, in the data set with HIV-1(IIIB) (HIV-1 infected MT4 lymphocytes), the EC50 – broadly, the midpoint of the concentration-response curve – was found to be 0.3 nM; the “EC50 anti-HIV, p24” value was 1 ng/mL; the “EC100 anti-HIV, p24 (complete inhibition of HIV-1)” value is 0.1 µg/mL and 0.08 µg/mL; the “EC100 anti-HIV, p24 (molar)” value is on record as 3.3 nM. In the data set on HIV-1(IIIB) (anti-HIV p24, MT4), the “fold more potent than N-9 in terms of molar concentration at EC50” value is “about 540 fold” and the “fold more potent than N-9 in terms of weight per volume” value is on record as “about 100 fold”. In addition, in the data set on HIV-1(IIIB) (p24 ELISA of HIV-infected MT4 culture supernatant), the “concentration of complete inhibition of p24 expression (FIG. 9)” value turned out to be 0.1 microgram/ml. The “EC100 for HSV-2 (complete inhibition)” value in the data set with HSV-2 came out at 0.01 µg/mL. Besides, the resistance to proteolysis result in data set [3] is “no proteolysis was detected up to 24 hr of treatment even at as much as 5% (W/W) of enzyme”.
